Consider one substance from patent EP0971740B1.

Assay [1] has as its target FnBP purified from S. aureus strain Newman (Staphylococcus aureus). In words: competition ELISA on FnBP coated at 5 µg/ml; competitor anti-D320-33 F(ab')2 at 100 µg/ml. Background: In an ELISA, binding on a coated surface is turned into a signal by an enzyme label.
Assay [2] shares this target. The experiment in a line: competition ELISA on FnBP coated at 5 µg/ml; competitor anti-D121-34 F(ab')2 at 100 µg/ml.

Regarding “Human plasma Fn (from UniProt P02751 32-2477) (ligand)”, the concentration of soluble Fn at which F(ab')2 recognition of FnBP was virtually eliminated in assay [1] and in assay [2] was 50 µg/mL in each case.
